Measurements as given in article PMC3025530 (The Biochemical journal, 2010).

Columns and labels:
[1] = target: T1, ADAM12-S (shorter secreted form of ADAM12), full-length (human, UniProt O43184-2 29-707); assay: enzyme inhibition kinetics
T1 sequence (looked up): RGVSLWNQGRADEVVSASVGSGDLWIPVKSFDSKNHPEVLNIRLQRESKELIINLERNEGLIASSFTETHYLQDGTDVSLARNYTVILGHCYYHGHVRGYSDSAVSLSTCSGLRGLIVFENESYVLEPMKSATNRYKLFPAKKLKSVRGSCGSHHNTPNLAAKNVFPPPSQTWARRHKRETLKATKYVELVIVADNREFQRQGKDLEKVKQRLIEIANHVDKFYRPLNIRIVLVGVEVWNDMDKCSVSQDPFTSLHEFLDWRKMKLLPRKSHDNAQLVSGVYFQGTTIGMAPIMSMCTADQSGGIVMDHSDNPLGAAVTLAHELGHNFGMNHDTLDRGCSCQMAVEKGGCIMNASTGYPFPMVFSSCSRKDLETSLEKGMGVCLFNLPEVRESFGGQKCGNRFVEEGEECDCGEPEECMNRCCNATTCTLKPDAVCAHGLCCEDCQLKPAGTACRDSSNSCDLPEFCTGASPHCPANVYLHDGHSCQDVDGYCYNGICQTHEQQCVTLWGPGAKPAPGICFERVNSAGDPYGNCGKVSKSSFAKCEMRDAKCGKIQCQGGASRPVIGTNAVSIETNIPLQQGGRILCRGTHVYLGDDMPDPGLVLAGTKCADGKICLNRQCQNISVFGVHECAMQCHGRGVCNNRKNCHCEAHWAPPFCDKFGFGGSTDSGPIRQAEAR

[2] = target: T2, ADAM12-Cat (truncated ADAM12 protein consisting of only the pro and catalytic domains) (human, UniProt O43184-2 29-419); assay: enzyme inhibition kinetics
T2 sequence (looked up): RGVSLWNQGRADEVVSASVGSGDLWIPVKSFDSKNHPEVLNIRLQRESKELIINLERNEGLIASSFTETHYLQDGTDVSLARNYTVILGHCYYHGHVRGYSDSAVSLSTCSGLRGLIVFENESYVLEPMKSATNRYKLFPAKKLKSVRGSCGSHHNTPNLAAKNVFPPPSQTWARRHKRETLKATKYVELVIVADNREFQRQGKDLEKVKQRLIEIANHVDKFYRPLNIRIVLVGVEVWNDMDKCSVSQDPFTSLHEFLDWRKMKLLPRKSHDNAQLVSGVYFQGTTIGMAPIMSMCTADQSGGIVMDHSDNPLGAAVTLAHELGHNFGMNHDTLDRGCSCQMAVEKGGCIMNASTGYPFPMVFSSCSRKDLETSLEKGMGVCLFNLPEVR

Row | Binder | Ki [1] [nM] | Ki [2] [nM]
1 | TIMP-1 (tissue inhibitor of metalloproteinases 1), full-length (natural protein) not shown | 223 | 741
2 | N-TIMP-3 (N-terminal domain of TIMP-3), wild-type (domain or fragment, human) CTCSPSHPQDAFCNSDIVIRAKVVGKKLVKEGPFGTLVYTIKQMKMYRGFTKMPHVQYIHTEASESLCGLKLEVNKYQYLLTGRVYDGKMYTGLCNFVERWDQLTLSQRKGLNYRYHLGCN | 4.4 | 0.93
